# The MegaScale stability set (Tsuboyama et al. 2023)
# B1: r4_43_TrROS_Hall (parent)
# chain: DLVTIKVPLENLEEIKKAAEKAGFKIVSISYDKENKEVTIVIEKKK
# Variants of: B1
# Assay: folding stability dG (cDNA display proteolysis); higher = more stable
# Conditions: PBS, room temperature
row,Variant,folding stability dG
1,N35F,3.5 kcal/mol
2,N35K,3.17 kcal/mol
3,N35M,3.93 kcal/mol
4,N35D,3.73 kcal/mol
5,F24M,2.55 kcal/mol
6,L2Q,3.85 kcal/mol
7,L2F,3.76 kcal/mol
8,L2Y,4.08 kcal/mol
9,L2K,3.52 kcal/mol
10,I5K,3.27 kcal/mol
11,I5C,3.01 kcal/mol
12,I5L,4.01 kcal/mol
13,I5W,4.23 kcal/mol
14,V38I,3.66 kcal/mol
15,V38K,1.02 kcal/mol
16,V38D,0.46 kcal/mol
17,I42Q,2.84 kcal/mol
18,I42E,1.39 kcal/mol
19,I42L,3.79 kcal/mol
20,I42M,3.85 kcal/mol
21,T4W,3.88 kcal/mol
22,T4D,2.98 kcal/mol
23,T4Y,4.13 kcal/mol
24,V41S,3.51 kcal/mol

row,Variant,folding stability dG
1,V41N,3.34 kcal/mol
2,V41L,3.91 kcal/mol
3,N11G,3.34 kcal/mol
4,N11H,3.83 kcal/mol
5,N11D,3.4 kcal/mol
6,N11M,3.51 kcal/mol
7,A22I,3.67 kcal/mol
8,A22W,4.33 kcal/mol
9,A22E,3.2 kcal/mol
10,A22V,3.75 kcal/mol
11,A22H,3.64 kcal/mol
12,A22R,3.68 kcal/mol
13,Y31I,3.27 kcal/mol
14,Y31K,3.34 kcal/mol
15,Y31V,3.47 kcal/mol
16,Y31F,3.3 kcal/mol
17,Y31R,3.39 kcal/mol
18,I26N,1.35 kcal/mol
19,I26H,1.53 kcal/mol
20,V7G,3.46 kcal/mol
21,V7P,2.19 kcal/mol
22,V7R,3.3 kcal/mol
23,E43F,4.59 kcal/mol
24,E43L,4.39 kcal/mol

row,Variant,folding stability dG
1,E43R,3.76 kcal/mol
2,L12D,2.46 kcal/mol
3,L12P,1.92 kcal/mol
4,E37P,2.62 kcal/mol
5,E37H,3.86 kcal/mol
6,E37M,3.64 kcal/mol
7,E37D,3.49 kcal/mol
8,E37Q,3.59 kcal/mol
9,E37T,3.88 kcal/mol
10,A18H,3.77 kcal/mol
11,A18F,3.45 kcal/mol
12,A18T,3.43 kcal/mol
13,K17E,3.45 kcal/mol
14,K17V,3.69 kcal/mol
15,L9P,3.53 kcal/mol
16,L9F,3.69 kcal/mol
17,D1L,3.84 kcal/mol
18,D1V,4 kcal/mol
19,D1A,3.81 kcal/mol
20,T39H,3.47 kcal/mol
21,T39V,3.56 kcal/mol
22,T39N,3.14 kcal/mol
23,T39I,3.66 kcal/mol
24,P8A,3.6 kcal/mol

row,Variant,folding stability dG
1,P8K,3.71 kcal/mol
2,P8W,3.7 kcal/mol
3,K25R,4.04 kcal/mol
4,K25D,2.73 kcal/mol
5,K25S,3.58 kcal/mol
6,I40T,1.73 kcal/mol
7,I40F,3.93 kcal/mol
8,S30F,3.9 kcal/mol
9,S30E,3.4 kcal/mol
10,K6I,3.75 kcal/mol
11,K6S,3.52 kcal/mol
12,K6G,2.98 kcal/mol
13,K21G,3.83 kcal/mol
14,K21C,3.87 kcal/mol
15,K21T,3.9 kcal/mol
16,K21Q,3.9 kcal/mol
17,K21S,3.93 kcal/mol
18,V27Q,3.48 kcal/mol
19,V27M,3.99 kcal/mol
20,V27E,2.88 kcal/mol
21,E34M,3.74 kcal/mol
22,E34I,3.88 kcal/mol
23,E34H,3.92 kcal/mol
24,E34P,3.68 kcal/mol

row,Variant,folding stability dG
1,E34C,3.63 kcal/mol
2,S28V,3.22 kcal/mol
3,S28T,3.48 kcal/mol
4,S28A,3.71 kcal/mol
5,S28W,3.88 kcal/mol
6,I15W,4.14 kcal/mol
7,I15A,4.01 kcal/mol
8,I15Y,3.88 kcal/mol
9,I15M,3.42 kcal/mol
10,K16C,3.47 kcal/mol
11,K16Y,4.02 kcal/mol
12,K16H,3.29 kcal/mol
13,K16Q,3.57 kcal/mol
14,K16F,3.62 kcal/mol
15,K16T,3.88 kcal/mol
16,K36Y,3.61 kcal/mol
17,K36T,3.48 kcal/mol
18,E14A,3.78 kcal/mol
19,E14Y,3.75 kcal/mol
20,K45C,3.87 kcal/mol
21,K45D,3.94 kcal/mol
22,K45G,3.87 kcal/mol
23,K45N,3.84 kcal/mol
24,K45T,3.99 kcal/mol

row,Variant,folding stability dG
1,K46D,3.55 kcal/mol
2,K46S,3.72 kcal/mol
3,K44L,3.96 kcal/mol
4,K44Y,4.68 kcal/mol
5,K44N,3.53 kcal/mol
6,D32I,3.39 kcal/mol
7,D32L,3.21 kcal/mol
8,V3W,4.34 kcal/mol
9,V3N,3.25 kcal/mol
10,V3I,3.36 kcal/mol
11,E10G,3.58 kcal/mol
12,E10F,3.75 kcal/mol
13,E10P,3.48 kcal/mol
14,E10I,3.86 kcal/mol
15,E10R,3.72 kcal/mol
16,E10N,4.02 kcal/mol
17,E10D,3.29 kcal/mol
18,A19L,3.69 kcal/mol
19,A19W,3.99 kcal/mol
20,A19K,3.32 kcal/mol
21,I29S,2.98 kcal/mol
22,I29R,2.47 kcal/mol
23,I29W,3.93 kcal/mol
24,I29H,2.76 kcal/mol

row,Variant,folding stability dG
1,I29Y,4.25 kcal/mol
2,I29E,3.18 kcal/mol
3,E20H,3.6 kcal/mol
4,E20T,3.27 kcal/mol
5,E20N,3.55 kcal/mol
6,E20F,4.07 kcal/mol
7,G23S,3.28 kcal/mol
8,G23K,3.73 kcal/mol
9,G23R,3.52 kcal/mol
10,G23W,3.67 kcal/mol
11,G23V,2.78 kcal/mol
12,G23D,2.75 kcal/mol
13,G23Q,3.51 kcal/mol
14,G23M,3.46 kcal/mol
15,E13N,3.6 kcal/mol
16,E13D,3.64 kcal/mol
17,K33Q,3.83 kcal/mol
18,K33H,3.73 kcal/mol
19,K33M,3.72 kcal/mol
20,K33V,3.73 kcal/mol
21,K33F,3.61 kcal/mol
22,K33C,3.44 kcal/mol
23,K33A,3.49 kcal/mol
